Data reported in EP4538294A1 (Shandong Simcere Biopharmaceutical Co., Ltd., dated 2025).
“And” between values parts separate entries of the source, which are not always exact repeats. Identical values can stand only once.

T1: human BCMA on Flp-inCHO-human BCMA cells (human, UniProt Q02223 1-184)
T1 construct: whole, on cells
T1 sequence (looked up): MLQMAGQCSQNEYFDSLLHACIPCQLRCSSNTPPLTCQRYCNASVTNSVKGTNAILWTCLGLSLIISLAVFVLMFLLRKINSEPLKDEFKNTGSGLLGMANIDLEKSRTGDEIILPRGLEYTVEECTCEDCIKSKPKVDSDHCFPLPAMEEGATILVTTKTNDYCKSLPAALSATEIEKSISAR

B1: REGN5459 (bispecific antibody, human IgG4 S228P, kappa)
heavy 1: EVQLVESGGGLVQPGGSLRLSCAASGFTFSNFWMTWVRQAPGKGLEWVANMNQDGSEKYYVDSVKGRFTISRDNAKSSLYLQMNSLRAEDTAVYYCARDREYCISTSCYDDFDYWGQGTLVTVSSASTKGPSVFPLAPCSRSTSESTAALGCLVKDYFPEPVTVSWNSGALTSGVHTFPAVLQSSGLYSLSSVVTVPSSSLGTKTYTCNVDHKPSNTKVDKRVESKYGPPCPPCPAPPVAGPSVFLFPPKPKDTLMISRTPEVTCVVVDVSQEDPEVQFNWYVDGVEVHNAKTKPREEQFNSTYRVVSVLTVLHQDWLNGKEYKCKVSNKGLPSSIEKTISKAKGQPREPQVYTLPPSQEEMTKNQVSLTCLVKGFYPSDIAVEWESNGQPENNYKTTPPVLDSDGSFFLYSRLTVDKSRWQEGNVFSCSVMHEALHNHYTQKSLSLSLGK
heavy 2: EVQLVESGGGLVQPGRSLRLSCAASGFTFDDYSMHWVRQAPGKGLEWVSGISWNSGSIGYADSVKGRFTISRDNAKNSLYLQMNSLRAEDTALYYCAKYGSGYGKFYYYGMDVWGQGTTVTVSSASTKGPSVFPLAPCSRSTSESTAALGCLVKDYFPEPVTVSWNSGALTSGVHTFPAVLQSSGLYSLSSVVTVPSSSLGTKTYTCNVDHKPSNTKVDKRVESKYGPPCPPCPAPPVAGPSVFLFPPKPKDTLMISRTPEVTCVVVDVSQEDPEVQFNWYVDGVEVHNAKTKPREEQFNSTYRVVSVLTVLHQDWLNGKEYKCKVSNKGLPSSIEKTISKAKGQPREPQVYTLPPSQEEMTKNQVSLTCLVKGFYPSDIAVEWESNGQPENNYKTTPPVLDSDGSFFLYSRLTVDKSRWQEGNVFSCSVMHEALHNRFTQKSLSLSLGK
light: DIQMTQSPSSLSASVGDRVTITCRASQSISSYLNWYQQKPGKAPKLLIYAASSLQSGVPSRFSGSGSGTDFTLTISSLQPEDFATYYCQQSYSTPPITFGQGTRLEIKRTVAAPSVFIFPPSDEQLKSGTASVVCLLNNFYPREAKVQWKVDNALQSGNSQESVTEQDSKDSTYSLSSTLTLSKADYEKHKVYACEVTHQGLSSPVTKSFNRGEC
notes: Positive control, BCMA x CD3 bispecific of Regeneron (WO 2020018820 A1), made in Expi293F; Fc with mutations that prevent homodimerization; also called RGEN5459
B2: Tri-59 (trispecific antibody, V domains shown)
VHH: EVQLVESGGGLVQPGGSLRLSCAASESISSIHIMAWYRQAPGKQRELVAGIRNDGSTVYVDSVKGRFTISRDNAKNSLYLQMNSLRAEDTAVYYCNADQGFGSYSEWERRSRWGQGTTVTVSS
VH 1: EVQLVQSGAEVKKPGSSVKVSCKASGYTFTSYGISWVRQAPGQGLEWMGEIYPRSGNTYYNEKFKGRVTLTADKSTSTAYMELSSLRSEDTAVYYCARGRAYGRNYPMDYWGQGTTVTVSS
VL 1: EIVLTQSPATLSLSPGERATLSCRASQSIGTSIHWYQQKPGQSPRLLIKYASESISGIPARFSGSGSGTDFTLTISSLEPEDFAVYYCQQSNSWPYTFGGGTKVEIK
VH 2: EVQLVESGGGVVQPGRSLRLSCAASGFTFTDYYMSWVRQAPGKGLEWVAMSRNKAKGHTIEYSSSVKGRFTISRDNSKNTLYLQMNSLRAEDTAVYYCARDTYESYDGYFDVWGQGTTVTVSS
VL 2: DIVMTQSPDSLAVSLGERATINCKSSQSLFNSRSRKNYLAWYQQKPGQTPKLLIYWASIRESGVPDRFSGSGSGTDFTLTISSLQAEDVAVYYCKQSYYLYTFGQGTKLEIK
B3: Tri-29 (trispecific antibody, V domains shown)
VHH: EVQLVESGGGLVQPGGSLRLSCSASGFTLDYYMIGWFRQAPGKEREGLSSISPADGSTYYADSVKGRFTISRDSSKNTVYLQMNSLRAEDTAVYYCAAGNEATISWGFGPWEYDYWGQGTMVTVSS
VH 1: B2 VH 1
VL 1: B2 VL 1
VH 2: B2 VH 2
VL 2: B2 VL 2
B4: JNJ7564 (bispecific antibody, human IgG4 S228P, kappa, lambda, F234A L235A)
heavy 1: not shown
light 1: DIQMTQSPSSLSASVGDRVTITCKASQNVATHVGWYQQKPGKAPKRLIYSASYRYSGVPSRFSGSGSGTEFTLTISNLQPEDFATYYCQQYNRYPYTFGQGTKLEIKRTVAAPSVFIFPPSDEQLKSGTASVVCLLNNFYPREAKVQWKVDNALQSGNSQESVTEQDSKDSTYSLSSTLTLSKADYEKHKVYACEVTHQGLSSPVTKSFNRGEC
heavy 2: EVQLVESGGGLVQPGGSLRLSCAASGFTFNTYAMNWVRQAPGKGLEWVARIRSKYNNYATYYAASVKGRFTISRDDSKNSLYLQMNSLKTEDTAVYYCARHGNFGNSYVSWFAYWGQGTLVTVSSASTKGPSVFPLAPCSRSTSESTAALGCLVKDYFPEPVTVSWNSGALTSGVHTFPAVLQSSGLYSLSSVVTVPSSSLGTKTYTCNVDHKPSNTKVDKRVESKYGPPCPPCPAPEAAGGPSVFLFPPKPKDTLMISRTPEVTCVVVDVSQEDPEVQFNWYVDGVEVHNAKTKPREEQFNSTYRVVSVLTVLHQDWLNGKEYKCKVSNKGLPSSIEKTISKAKGQPREPQVYTLPPSQEEMTKNQVSLTCLVKGFYPSDIAVEWESNGQPENNYKTTPPVLDSDGSFLLYSKLTVDKSRWQEGNVFSCSVMHEALHNHYTQKSLSLSLGK
light 2: QTVVTQEPSLTVSPGGTVTLTCRSSTGAVTTSNYANWVQQKPGQAPRGLIGGTNKRAPGTPARFSGSLLGGKAALTLSGVQPEDEAEYYCALWYSNLWVFGGGTKLTVLGQPKAAPSVTLFPPSSEELQANKATLVCLISDFYPGAVTVAWKADSSPVKAGVETTTPSKQSNNKYAASSYLSLTPEQWKSHRSYSCQVTHEGSTVEKTVAPTECS
notes: Positive control, GPRC5D x CD3 bispecific of Johnson & Johnson (WO 2019220368 A1), made by reduction and reoxidation of the two parental antibodies
B5: antiFITC×CD3-Hab01 (bispecific antibody, human IgG4 S228P, kappa, F234A L235A)
heavy: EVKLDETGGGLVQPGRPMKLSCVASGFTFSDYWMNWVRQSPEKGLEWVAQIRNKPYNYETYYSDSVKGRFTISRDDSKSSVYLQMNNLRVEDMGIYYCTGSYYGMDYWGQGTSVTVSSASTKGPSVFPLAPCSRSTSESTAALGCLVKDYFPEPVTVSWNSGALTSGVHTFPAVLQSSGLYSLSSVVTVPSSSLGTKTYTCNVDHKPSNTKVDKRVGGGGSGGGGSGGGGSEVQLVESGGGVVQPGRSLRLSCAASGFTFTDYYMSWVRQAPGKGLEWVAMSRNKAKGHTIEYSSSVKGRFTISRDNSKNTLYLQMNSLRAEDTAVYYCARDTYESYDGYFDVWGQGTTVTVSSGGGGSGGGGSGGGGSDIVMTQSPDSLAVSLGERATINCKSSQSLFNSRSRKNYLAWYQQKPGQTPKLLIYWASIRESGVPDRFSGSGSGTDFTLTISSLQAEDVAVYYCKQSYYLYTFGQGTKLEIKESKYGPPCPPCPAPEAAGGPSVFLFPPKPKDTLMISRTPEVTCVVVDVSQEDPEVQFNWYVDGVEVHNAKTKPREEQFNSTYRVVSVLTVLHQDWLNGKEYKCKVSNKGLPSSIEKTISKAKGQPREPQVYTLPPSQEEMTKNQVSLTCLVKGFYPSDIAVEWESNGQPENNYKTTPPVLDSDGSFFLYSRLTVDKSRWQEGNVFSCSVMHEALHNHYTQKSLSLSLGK
light: DVVMTQTPLSLPVSLGDQASISCRSSQSLVHSNGNTYLRWYLQKPGQSPKVLIYKVSNRFSGVPDRFSGSGSGTDFTLKISRVEAEDLGVYFCSQSTHVPWTFGGGTKLEIKRTVAAPSVFIFPPSDEQLKSGTASVVCLLNNFYPREAKVQWKVDNALQSGNSQESVTEQDSKDSTYSLSSTLTLSKADYEKHKVYACEVTHQGLSSPVTKSFNRGEC
notes: Negative control for the tumor antigens, prepared internally; carries the CD3-Hab01 arm
B6: Tri-38 (trispecific antibody, V domains shown)
VHH: B3 VHH
VH 1: B2 VH 1
VL 1: B2 VL 1
VH 2: B2 VH 2
VL 2: B2 VL 2
B7: Tri-52 (trispecific antibody, V domains shown)
VHH: B2 VHH
VH 1: B2 VH 1
VL 1: B2 VL 1
VH 2: B2 VH 2
VL 2: B2 VL 2
B8: Tri-66 (trispecific antibody, V domains shown)
VHH: B2 VHH
VH 1: EVQLVQSGAEVKKPGASVKVSCKTSGYIFTNFGITWVRQAPGQRLEWMGENYPRRINTYYNEKFKGRVTITADKSASTAYMELSSLRSEDTAVYYCSRKDIFGLSYALDYWGQGTTVTVSS
VL 1: DIQMTQSPSSLSASVGDRVTITCKASQNVGTNVAWYQHKPGKSPKALIYSASYQYSGVPSRFSGSGSGTDFTLTISSLQPEDVATYICQQYKNYPYTFGGGTKVEIK
VH 2: B2 VH 2
VL 2: B2 VL 2
B9: Tri-64 (trispecific antibody, V domains shown)
VHH: B2 VHH
VH 1: B2 VH 1
VL 1: B2 VL 1
VH 2: B2 VH 2
VL 2: B2 VL 2
B10: Tri-46 (trispecific antibody, V domains shown)
VHH: B2 VHH
VH 1: B2 VH 1
VL 1: B2 VL 1
VH 2: B2 VH 2
VL 2: B2 VL 2
B11: Tri-65 (trispecific antibody, V domains shown)
VHH: B2 VHH
VH 1: B8 VH 1
VL 1: B8 VL 1
VH 2: B2 VH 2
VL 2: B2 VL 2

Biological target: T2, human CD3 on Jurkat cells and on activated human PBMC (human, UniProt P07766 23-207; P04234 22-171)
T2 construct: whole, on cells; Endogenous CD3 of the T cell receptor complex on cells
T2 sequence (P07766 23-207, chain 1 of 2): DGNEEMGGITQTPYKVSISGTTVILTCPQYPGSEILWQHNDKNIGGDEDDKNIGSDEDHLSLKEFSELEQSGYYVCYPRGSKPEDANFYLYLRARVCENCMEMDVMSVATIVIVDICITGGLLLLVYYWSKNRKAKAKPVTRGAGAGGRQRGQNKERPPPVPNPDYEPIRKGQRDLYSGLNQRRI
T2 sequence (P04234 22-171, chain 2 of 2): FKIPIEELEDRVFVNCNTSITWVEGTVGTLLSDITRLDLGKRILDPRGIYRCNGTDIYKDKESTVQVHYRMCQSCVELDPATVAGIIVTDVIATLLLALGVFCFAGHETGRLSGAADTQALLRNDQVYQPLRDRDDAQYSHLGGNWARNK
Assay: FACS, Jurkat cells

Row | Binder | EC50 | Maximum mean fluorescence intensity
1 | B1 | 74.7 nM and 49.7 nM and 66.8 nM and 101 nM | 
2 | B2 |  | 1800
3 | B3 |  | 418

Biological target: T2, human CD3 on Jurkat cells and on …
Assay: FACS, activated human PBMC

Row | Binder | EC50 | Maximum mean fluorescence intensity
4 | B1 | 223 nM and 221 nM | 
5 | B4 | 5.21 nM and 7.36 nM | 
6 | B2 | 92.1 nM | 3510
7 | B3 | 161 nM | 6730

Biological target: T3, monkey CD3 on activated monkey PBMC (monkey)
T3 construct: whole, on cells
T3 sequence (Q95LI5 22-198): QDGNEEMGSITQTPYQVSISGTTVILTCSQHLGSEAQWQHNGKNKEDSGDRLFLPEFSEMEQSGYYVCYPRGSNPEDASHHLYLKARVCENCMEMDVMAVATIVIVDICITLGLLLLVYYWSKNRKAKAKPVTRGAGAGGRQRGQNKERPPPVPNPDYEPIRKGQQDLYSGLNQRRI
Assay: FACS, activated monkey PBMC

Row | Binder | EC50 | Maximum mean fluorescence intensity
8 | B5 | 15.2 nM and 12.4 nM | 
9 | B1 | 161 nM | 
10 | B4 | 5.79 nM and 5.72 nM | 
11 | B2 | 249 nM | 5280
12 | B3 |  | 5630
13 | B6 |  | 1440
14 | B7 |  | 693
15 | B8 |  | 345
16 | B9 |  | 348
17 | B10 |  | 416
18 | B11 |  | 377

Biological target: T4, human GPRC5D on CHOK1-human GPRC5D cells (human, UniProt Q9NZD1 1-345)
T4 construct: whole, on cells
T4 sequence (Q9NZD1 whole entry): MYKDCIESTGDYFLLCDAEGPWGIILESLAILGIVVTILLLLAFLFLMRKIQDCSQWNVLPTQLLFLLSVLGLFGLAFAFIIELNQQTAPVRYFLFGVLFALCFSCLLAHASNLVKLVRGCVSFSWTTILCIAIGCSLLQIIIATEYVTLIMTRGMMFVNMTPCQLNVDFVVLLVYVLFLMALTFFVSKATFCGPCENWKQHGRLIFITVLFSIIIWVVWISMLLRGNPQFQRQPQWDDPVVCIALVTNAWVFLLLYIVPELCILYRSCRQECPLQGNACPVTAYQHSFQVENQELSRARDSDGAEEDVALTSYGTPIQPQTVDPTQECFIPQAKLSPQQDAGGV
Assay: FACS, CHOK1-human GPRC5D cells

Row | Binder | binding result | EC50
19 | B5 | no binding (tested: 100 nM highest concentration) | 
20 | B1 | no binding (tested: 100 nM highest concentration) | 
21 | B2 |  | 0.59 nM
22 | B3 |  | 1.39 nM
23 | B6 |  | 2.06 nM
24 | B7 |  | 2.97 nM
25 | B8 |  | 1.53 nM
26 | B9 |  | 3.63 nM
27 | B10 |  | 2.36 nM
28 | B11 |  | 1.66 nM

Biological target: T1, human BCMA on Flp-inCHO-human BCMA cells
Assay: FACS, Flp-inCHO-human BCMA cells

Row | Binder | binding result | EC50
29 | B5 | no binding (tested: 100 nM highest concentration) | 
30 | B4 | no binding (tested: 100 nM highest concentration) | 
31 | B2 |  | 1.21 nM
32 | B3 |  | 2.27 nM
33 | B6 |  | 4.43 nM
34 | B7 |  | 1.88 nM
35 | B8 |  | 1.09 nM
36 | B9 |  | 1.08 nM
37 | B10 |  | 5.19 nM
38 | B11 |  | 2.54 nM
